Experimental data published in patent publication US5458874A, “Method of increasing monocyte chemotaxis with CAP37 and monocyte chemotactic portions thereof” (Emory University, priority 1992, dated 1995).
Entries after “also recorded” stand apart in the source; their conditions may differ.

Legend:
[1] = system: LPS from S. minnesota wild type; LPS from S. minnesota Re mutant; test: ELISA, binding of CAP37 to LPS; settings: CAP37 at 120 ng/well; LPS 0 to 50 μg/ml
Description: (§1) The LPS from S. minnesota wild type, S. minnesota Re mutant, Lipid A from S. minnesota R595, and Lipid A from S. typhimurium Re mutant were applied to microtiter wells at concentrations ranging from 0 to 50 μg/ml and incubated overnight. The trays were then incubated with CAP37 at 120 ng/well for 1 hour at 37° C. The next incubation was with a rabbit antiserum against CAP37 (1:400 dilution) and the color development was as previously described (Pereira et al., 1989) and the absorbance was read at 492 nm.

rabbit monocytes = test: Rabbit monocyte chemotaxis; format: cell-based; settings: 1000 ng/ml (2.7×10^-8 M)
Description: Peripheral blood mononuclear cells from adult female rabbits, were separated on a 61% PERCOLL (Pharmacia) gradient (Chambers et al.). This technique separated the mononuclear cells from the RBC and PMNs. No further separation of monocytes from lymphocytes was undertaken with the rabbit blood.
(§2) Chemotaxis was measured using the modified Boyden chamber technique (Snyderman et al.). The leading front method (Zigmond et al.) was used to assess migration of monocytes and lymphocytes through a 8 μm filter (Millipore Corporation, Bedford, Mass.). PMN chemotaxis was measured using a 3 μm filter (Millipore). The purified CAP37 protein (Example 1) used in chemotaxis assays were endotoxin-free as determined by the Limulus Amoebocyte Lysate Assay (Whittaker Bioproducts, Inc., Walkersville, Md.). The dilutions of CAP37 and N-formyl-methionyl-leucyl-phenylalanine (FMLP) were made in Geys buffer (Gibco) containing 2% endotoxin-free bovine serum albumin (BSA). Geys buffer containing 2% BSA served as the negative control, and a […] solution of FMLP as the positive control.
The chambers were incubated in a humidified atmosphere (6.2% CO2) for 2 hours when testing monocytes and lymphocytes, and for 30 minutes when testing PMNs. […] The cells were viewed using oil immersion and the distance the cells had migrated into the filter was determined over five different fields on the same slide (Zigmond et al.). […]

Salmonella SH7426 = test: Bactericidal assay; format: cell-based
Description: An overnight culture of Salmonella typhimurium (or other microorganism of interest, if desired) is set up by inoculating one colony in 5 ml of LB Broth (LB Broth consists of 10 g BACTO tryptone (DIFCO), 5 g BACFO yeast (DIFCO) and 5 g NaCl made up to 1 L with endotoxin free water; add 15 g of BACTO agar (DIFCO) to this broth to make LB agar (autoclave). The culture is incubated at 37° C. with rotation. 100 μl of this overnight culture is then transferred to 5 ml of fresh LB Broth and incubated at 37° C. with rotation for 2 hours. Four ml of this log phase culture is then transferred to a sterile cuvette and the optical density is read at […]. Dilutions of the microorganism are then made in tryptone saline (5 g BAOTO tryptone (DIFCO) and 5 g NaCl made up to 1 L with endotoxin free water, pH 5.5) to give a final concentration of 5×10^3 organisms/ml (an O.D. reading of 0.25 at 520 mm is equivalent to 1×10^8 organisms/ml). The microorganisms are placed at 4° C. until ready to be used.
The stock solutions of peptides are stored at -20° C. at concentrations of 1 mg/ml of endotoxin-free water. The peptide is diluted out in tryptone saline to the desired concentration. 100 μl of the peptide is added to each well of the microtitre plate (Corning) and then 100 μl of the bacterial suspension (well vortexed) is added. Each assay point is set up in triplicate. 100 μl of a control, consisting of bacteria and tryptone saline (T=0) in the absence of peptide is plated out on LB agar plates. The microliter plate is then incubated at 37° C. for 1 hour. At the end of the incubation time, 100 μl of each sample is plated out on LB agar plates. The T=60 control (consisting of bacteria and tryptone saline in the absence of peptide) is plated out last. The plates are incubated overnight, and the number of colony forming units (CFU) are determined.
The % killed is determined as follows: [formula]

Ps. aeruginosa = settings: (Shafer, 1986); cited from earlier work
wild type LPS = test: Neutralization of LPS activity, limulus amebocyte lysate (LAL) assay, wild type LPS; format: biochemical
Description: Further, the neutralization of LPS activity, as assayed by the limulus amebocyte lysate (LAL) assay, by CAP37 was measured. CAP37 was diluted to the desired concentrations (from 6.2 ng/ml to 500 ng/ml) in geys buffered saline pH 7 (GIBCO). To this wild type LPS (RIBI IMMUNOCHEM) or Re LPS from Salmonella (David Morrison, Kansas Medical Center) was added so that the final concentrations were 0.1, 0.5, 1.0 and 2.0 ng/ml LPS. The tubes were incubated at 37° C. for between 30 to 60 minutes and then assayed in the chromogenic LAL assay, using polymyxin E as a control.
As discussed in Example 11, peptides can be screened for lipopolysaccharide neutralizing capacity using the LAL assay also. The CAP37 peptide was diluted to the desired concentrations (from 125 ng/ml to 4000 ng/ml) in geys buffered saline pH 7 (GIBCO). To this is added the wild type LPS (RIBI IMMUNOCHEM) or Re LPS from Salmonella (David Morrison, Kansas Medical Center) so that the final concentration is 0.1, 0.5, and 1.0 ng/ml LPS. The tubes were incubated at 37° C. for between 30 to 60 minutes and then assayed in the chromogenic LAL assay.

[2] = system: Lipid A from S. minnesota R595; Lipid A from S. typhimurium Re mutant; test: ELISA, binding of CAP37 to Lipid A; settings: CAP37 at 120 ng/well; Lipid A 0 to 50 μg/ml
Description: as §1

lymphocytes = test: Lymphocyte chemotaxis, modified Boyden chamber technique; format: cell-based, human; settings: range employed in these experiments
Description: as §2
(§3) The chambers were incubated in a humidified atmosphere (6.2% CO2) for 2 hours when testing monocytes and lymphocytes, and for 30 minutes when testing PMNs. The filters were then removed and processed as previously described (Snyderman et al.). The cells were viewed using oil immersion and the distance the cells had migrated into the filter was determined over five different fields on the same slide (Zigmond et al.). Triplicate assays were performed for each experimental point.

E. coli = settings: (Shafer, 1986); cited from earlier work
monocytes = test: Checkerboard assay (chemokinesis); format: cell-based, human
rabbit PMN = test: Rabbit PMN chemotaxis; format: cell-based
Description: as §2, §3

Salmonella LT2 = settings: (Shafer, 1986); cited from earlier work

B1: CAP37: granule-associated cationic protein (mol. wt. 37,000 daltons) from human PMN, 222 amino acid mature protein (protein)
chain: IVGGRKARPRQFPFLASIQNQGRHFCGGALIHARFVMTAASCFQSQNPGVSTVVLGAYDLRRRERQSRQTFSISSMSENGYDPQQNLNDLMLLQLDREANLTSSVTILPLPLQNATVEAGTRCQVAGWGSQRSGGRLSRFPRFVNVTVTPEDQCRPNNVCTGVLTRRGGICNGDGGTPLVCEGLAHGVASFSLGPCGRGPDFFTRVALFRDWIDGVLNNPGP
[1]
  binding to LPS (ELISA): capable of binding Re LPS
Rabbit monocytes
  chemotactic for rabbit monocytes: chemotactic
Salmonella SH7426
  % survival with CAP 37: 64.3%
Ps. aeruginosa
  % survival with CAP 37: 36%
Wild type LPS
  neutralization of wild type LPS activity (LAL assay): significantly neutralized LPS activity
[2]
  binding to Lipid A (ELISA): capable of binding LPS and, in particular, Lipid A; also recorded: able to bind to Lipid A better than wild type LPS
lymphocytes
  effect on lymphocyte chemotaxis: did not have any effect
E. coli
  % survival with CAP 37: 4%
monocytes
  chemokinetic effect on monocytes: some chemokinetic effect
Rabbit PMN
  chemotactic response of rabbit PMN: did not show a chemotactic response
Salmonella LT2
  % survival with CAP 37: 43%
